One experiment concerns the target T1, human CD3e/g (human, UniProt P07766 23-126; P09693 23-116).
T1 construct: Bought soluble protein; also called hCD3e/g; human CD3e/g (Acro CDD-C52W4)
The experiment is described as follows: SPR (Carterra LSA), mAb on chip. On the procedure: (§1) High-throughput surface plasmon resonance (SPR) coupled kinetic experiments were performed on a Carterra LSA® instrument equipped with an HC-30M chip type (Carterra, USA). The instrument uses two microfluidic modules, a single-flow cell (SFC) and a 96 printhead, to deliver samples to the chip surface via back-and-forth cycling of a fixed sample volume. An up to 384-ligand array is generated by docking the MFC onto each of the four nested print block locations in a serial manner.
(§2) The purified mAbs were immobilized on a Carterra LSA® HC-30M chip by direct coupling. The chip surface was first activated by flowing a freshly prepared 1:1:1 activation mix of 100 mM MES pH 5.5, 100 mM S-NHS, 400 mM EDC for 7 min. mAbs diluted to 10 μg/mL in 10 mM NaOAc pH 4.25+0.01% TWEEN®20 were then injected and printed onto the chip surface simultaneously using the MFC printhead for 10 min. Finally, the chip surface was quenched by flowing 1 M ethanolamine for 7 min (to block the excess reactive esters), followed by 2 wash steps of 15 s each in 25 mM MES pH 5.5. In addition to expressed and purified mAbs, relevant benchmarks and negative control mAbs were also printed on the chip surface.
(§3) The data were analyzed using the Carterra Kinetics analysis software. Briefly, the data were referenced with the interstitial reference spots and double-referenced to a buffer cycle, and then fit globally to a 1:1 Langmuir binding model to determine their apparent association (ka) and dissociation (kd) kinetic rate constants and binding affinity constants (KD).

The target of a further experiment is T2, human CD3e/d (human, UniProt P07766 23-126; P04234 22-105).
T2 construct: Bought soluble protein; also called hCD3e/d; human CD3/ed (Sino CT038-H2508H)
T2 sequence (P07766 23-126, chain 1 of 2): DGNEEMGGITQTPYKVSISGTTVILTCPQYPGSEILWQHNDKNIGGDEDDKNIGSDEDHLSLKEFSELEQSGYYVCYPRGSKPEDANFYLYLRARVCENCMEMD
T2 sequence (P04234 22-105, chain 2 of 2): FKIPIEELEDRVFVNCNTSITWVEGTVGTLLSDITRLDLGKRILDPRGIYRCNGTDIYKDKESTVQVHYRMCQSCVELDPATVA
Briefly: SPR (Carterra LSA), mAb on chip. As to the method: as §1, §2, §3

For orientation: Kd means the constant that tells how readily two partners part at equilibrium.

T1 sequence (P07766 23-126, chain 1 of 2): as the sequence (P07766 23-126, chain 1 of 2) above
T1 sequence (P09693 23-116, chain 2 of 2): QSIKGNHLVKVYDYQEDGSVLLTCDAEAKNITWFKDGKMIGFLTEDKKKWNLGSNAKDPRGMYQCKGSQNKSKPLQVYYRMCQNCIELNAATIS

B1: mAb 42 (antibody, V domains shown)
VH: QAQLVQSGSELKKPGASVKVSCKASGYTFTKHSMNWVRQAPGQGLEWMGWINTNTGNPTYAQGFTGRFVFSLDTSVTTAYLQISSLKAEDTAVYYCAREGDYDFWSGFFNFDYWGQGTLVTVSS
VL: DIQMTQSPSSLSASVGDRVTITCRASQGIRNDLGWYQQKPGKAPKRLIYAASSLQSGVPSRFSGSGSGAEFTLTISSLQPEDFATYYCLQHNSYPRTFGQGTKVEIK
notes: VH and VL only
Turning to B1, the Kd with human CD3e/g is 19.4 nM.

B2: mAb 43 (antibody, V domains shown)
VH: QAQLVQSGSELKKPGASVKVSCKASGYTFTKHSMNWVRQAPGQGLEWMGWINTNTGNPMYAQGFTGRFVFSLDTSVTTAYLQISSLKAEDTAVYYCAREGDYDFWSGFFNFDYWGQGTLVTVSS
VL: DIQMTQSPSSLSASVGDRVTITCRASQGIRNDLGWYQQKPGKAPKRLIYAASSLQSGVPSRFSGSGSGAEFTLTISSLQPEDFATYYCLQHNSYPRTFGQGTKVEIK
notes: VH and VL only
As to B2, in the experiment with human CD3e/g, binding was put at a Kd of 21.7 nM. The Kd values of the last two molecules are within 1.5-fold of each other.

B3: mAb 47 (antibody, V domains shown)
VH: QAQLVQSGSELKKPGASVKVSCKASGYTFTKHSMNWVRQAPGQGLEWMGWINTNTGNPTYAQGFTGRFVFSLDTSVTTAYLQISSLKAEDTAVYYCAREGDYDFWSGFFNFDYWGQGTLVTVSS
VL: DIQMTQSPSSLSASVGDRVTITCRASQGIRNDLGWYQQKPGKAPKRLIYAASSLQSGVPSRFSGSGSGTEFTLTISSLQPEDFATYYCLQHNSYPRTFGQGTKVEIK
notes: VH and VL only
The molecule B3 had a Kd in the experiment with human CD3e/g of 20.1 nM.

B4: mAb 50 (antibody, V domains shown)
VH: QAQLVQSGSELKKPGASVKVSCKASGYTFTRHAMNWVRQAPGQGLEWMGWINTNTGNPTYAQGFTGRFVFSLDTSVTTAYLQISSLKAEDTAVYYCAREGDYDFWSGFFNFDYWGQGTLVTVSS
VL: DIQMTQSPSSLSASVGDRVTITCRASQGIRNDLGWFQQKPGKAPTRLIYAASSLQSGVPSRFSGSGSGAEFTLTISSLQPEDFATYYCLQHNSYPRTFGQGTKVEIK
notes: VH and VL only
Turning to B4, in the experiment with human CD3e/g, the Kd turned out to be 34.3 nM.

B5: mAb 44 (antibody, V domains shown)
VH: QAQLVQSGSELKKPGASVKVSCKASGYTFTRHAMNWVRQAPGQGLEWMGWINTNTGNPTYAQGFTGRFVFSLDTSVSTAYLKISSLKAEDTAVYYCVREGDYDFWSGFFNFDYWGQGTLVTVSS
VL: DIQMTQSPSSLSASVGDRVTITCRASQGIRNDLGWFQQKPGKAPTRLIYAASSLQSGVPSRFSGSGSGAEFTLTISSLQPEDFATYYCLQHNSYPRTFGQGTKVEIK
notes: VH and VL only
In the experiment with human CD3e/g, B5 had an equilibrium dissociation constant (Kd) of 19.1 nM. This Kd lies about 1.8-fold lower than the previous one.

B6: mAb 284 (antibody, V domains shown)
VH: EVQLLESGGGLVQPGGSLRLSCAASGFTFSSYAMSWVRQAPGKGLEWVSAISGSSGRTYYTDSVKGRFTISRDNSKNTLSLQMNSLRAEDTAVYYCAKKYSYYYYYMDVWGKGTTVTVSS
VL: SYELTQPLSVSVALGQTAKITCGGNNIGSKNVHWYQQKPGQAPVLVIYRDSNRPSGIPERFSGSNSGNTATLTISRAQAGDEADYYCQVWDSSTAVFGGGTQLTAL
notes: VH and VL only
The molecule B6 returned a dissociation constant Kd in the experiment with human CD3e/d of 450 nM.

B7: mAb 306 (antibody, V domains shown)
VH: EVQLLESGGGLVQPGGSLRLSCAASGFTFNSYAMSWVRQAPGRGLEWVSAISGRKSTTYYADSVKGRFTISRDNSKNTLYLQMNSLRAEDTAVYYCAKLWNYYYYYMDVWGKGTTVTVSS
VL: SYELTQPLSVSVALGQTARITCGGNNIGSKDVHWYQQKPGQAPVLVIYRDSNRPSGIPERFSGSNSGNTATLTISRAQAGDEADYYCQVWDSSTAVFGGGTQLTAL
notes: VH and VL only
Molecule B7 had a Kd in the experiment with human CD3e/d of 250 nM.

B8: mAb 318 (antibody, V domains shown)
VH: EGQLLESGGGLVQPGGSLRLSCAASGFTFSRYAMSWIRQAPGKGLEWVSVIDGSGGDKNYADSVKGRFTISRDNSKNSLYLLMNGLRVEDTAIYFCAKKFSYYYYYMDVWGKGTSVTVSS
VL: SYELTQPLSVSVALGQTARITCGGNNIGGKDVHWYQQKPGQAPVLVIYRDSNRPSGIPERFSGSNSGNTATLTISRAQAGDEADYYCQVWDSRTAVFGGGTQLTAL
notes: VH and VL only
Molecule B8 displayed a Kd with human CD3e/d of 84 nM.

B9: mAb 316 (antibody, V domains shown)
VH: EVQLLESGGGLVQPGGSRRLSCAASGFTFRTYAMSWVRQAPGKGLEWVSVINGRGDDTNYADSVKGRFTISRDNSKNILFLQMNSLRAEDTAVYYCAKKYSYYYYYMDVWGKGTTVTVSS
VL: SYELTQPLSVSVALGQTARITCGGNNIGSKDVHWYQQKPGQAPVLVIYRDSNRPSGIPERFSGSNSGNTATLTISRAQAGDEADYYCQVWDSRTAVFGGGTQLTAL
notes: VH and VL only
In turn, B9 registered a Kd with human CD3e/d of 70 nM.

B10: mAb 304 (antibody, V domains shown)
VH: EVQLLESGGGLVQPGGSRRLSCAASGFTFSSYAMSWVRQAPGKGLEWVSVISGRGDNTNYADSVKGRFTISRENSKNILYLQMNSLRAEDTAVYYCAKKYSYYYYYMDVWGKGTTVTVSS
VL: SYELTQPLSVSVALGQTARITCGGNNIGSKDVHWYQQKPGQAPVLVIYRDSNRPSGIPERFSGSNSGNTATLTISRAQAGDEADYYCQVWDSRTAVFGGGTQLTAL
notes: VH and VL only
B10: in the experiment with human CD3e/d, the dissociation constant (Kd) was found to be 120 nM.

B11: mAb 301 (antibody, V domains shown)
VH: EVQLLESGGGLVQPGGSRRLSCAASGFTFSSYAMSWVRQAPGKGLEWVSVISGRGDNTNYADSVKGRFTISRENSKNMLYLQMNSLRAEDTAVYYCAKKYSYYYYYMDVWGKGTTVTVSS
VL: SYELTQPLSVSVALGQTARITCGGNNIGSKDVHWYQQKPGQAPVLVIYRDSNRPSGIPERFSGSNSGNTATLTISRAQAGDEADYYCQVWDSRTAVFGGGTQLTAL
notes: VH and VL only
For B11, the affinity with human CD3e/d, expressed as Kd, was 110 nM.

B12: mAb 285 (antibody, V domains shown)
VH: EVQLLESGGGLGQPGGSLRLSCAASGFTFSNYAMSWVRQAPGKGLEWVSVISGSGGDKNYADSVKGRFTISRDNSKNTLYLQMNSLRAEDTAVYYCAKKYSYYYYYMDVWGKGTTVTVSS
VL: SYELTQPLSVSVALGQTARITCGGNNIGSKDVHWYQQKPGQAPVLVIYRDSNRPSGIPERFSGSNSGNTATLTISSAQAGDEADYYCQVWDSRTAVFGGGTQLTAL
notes: VH and VL only
B12: in the experiment with human CD3e/d, the Kd was determined as 150 nM.

B13: mAb 109 (antibody, V domains shown)
VH: QVQLVESGGGVVQPGRSLRLSCVASGFPFRSYGMHWVRQAPGKGLEWVAFIWYDGSNKYYADSVRGRFTISRDNFKKMVYLQMNSLRAEDTAVYYCARDLAGIYAFDVWGQGTVVTVSS
VL: EIVMTQSPATLSVSPGERATLSCRASQSVSSNLAWYQQKPGQAPRLLIYGASTRATGIPARFSGSGSGTEFTLTVSSLQSEDFAIYYCQQYNNWRPLTFGGGTKVEIK
notes: VH and VL only
Take B13: in the experiment with human CD3e/d, the Kd stood at 21.7 nM.

B14: mAb 77 (antibody, V domains shown)
VH: EVQLVESGGGLVQPGGSLRLSCAASGFTFSNYWMSWVRQAPGKGLEWVANIKQDGSEKYYVDSVRGRFTISRDNAKKSLYLQMNSLRAEDTAVYYCARDNSNYAYWYFDIWGRGTLVTVSS
VL: DIQMTQSPSTLSVSVGDRVTITCRASQSIRKWLAWYQQKPGKAPKLLIFKASSLESGVPSRFSGSGSGTEFTLTISSLQPDDFATYYCQQYDTYSRTFGQGTKVEIK
notes: VH and VL only
Molecule B14 returned a Kd in the experiment with human CD3e/d of 286 nM.

B15: mAb 240 (antibody, V domains shown)
VH: QGKLVESGGGVVQPGRSLRLSCVASGFTFSGYGMHWVRQAPNKGLEWVAIIYYDGKNKYYADSVKGRFTISRDNSKNTLYLQLNSLRAEDTAVYYCVRGPGYNWFDPWGQGTLVTVSS
VL: EIVLTQSPDFQSVTPKEKVTITCRASQNIGSSLHWYQQKPDQSPKLLIKHASQSFSGVPSRFSGSGSGTDFTLTINSLEAEDAATYYCHQSSSLPYTFGQGTKLEIK
notes: VH and VL only
Regarding B15, in the experiment with human CD3e/d, binding was characterised by a dissociation constant (Kd) of 18 nM.

B16: mAb 258 (antibody, V domains shown)
VH: EVQLLESGGGLVQPGGSLRLSCAASGFTFSNYAMNWVRQAPGKGLEWVSVISNSGGTRLYVDSVKGRFTISRDNSKNTLYLQMSSLRAADTAVYYCAKDAAAALYYYYFYYMDVWGKGTTVTVSS
VL: EIVLTQSPDFQSVTPKEKVTITCRASQSIGSSLHWYQQKPDQSPKLLIKYASQSFSGVPSRFSGSGSGTDFTLTINSLEAEDAATYYCHQSSSLPYTFGQGTKLEIK
notes: VH and VL only
B16: in the experiment with human CD3e/d, the affinity, expressed as Kd, was 24 nM.

B17: mAb 286 (antibody, V domains shown)
VH: EVKLVESGGGVVRPGGSLRLSCAASGFTFDDYGMSWVRQAPGKGLEWVSGISWNGGSTGYADSVKGRFTISRDNAKNSLYLQMNSLRAEDTALYHCARDGVPVVKRRYYYYYMDVWGKGTTVTVSS
VL: EIVLTQSPDFQSVTPKEKVTITCRASQSIGSSLHWYQQKPDQSPKLLIKYASQSFSGVPSRFSGRGSGTDFTLTINSLEAEDAATYYCHQSGSLPQTFGQGTKVEIK
notes: VH and VL only
As to B17, the Kd with human CD3e/d was 580 nM.

B18: mAb 290 (antibody, V domains shown)
VH: EVQLVESGGGVVRPGGSLRLSCAASGFTFDDYGMSWVRQAPGKGLEWVSGISWNGGSTGYADSVKGRFTISRDNAKNSLYLQMNSLRAEDTALYHCARDGVPVVKRRYYYYYMDVWGKGTTVTVSS
VL: EIVLTQSPDFQSVTPKEKITITCRASQSIGSSLHWYQQKPDQSPKLLIKYASQSFSGVPSRFSGSGSGTDFTLTINSLEAEDAATYYCHQSASLPQTFGQGTKVEIK
notes: VH and VL only
As for B18, in the experiment with human CD3e/d, binding was characterised by a dissociation constant (Kd) of 3200 nM.

B19: mAb 119 (antibody, V domains shown)
VH: EVQLVESGGGLVQPGRSLRLSCAASGFTFDDYTMHWVRQAPGKGLEWVSGISWNSGSIGYADSVKGRFTISRDNAKNSLYLQMNSLRAEDTALYYCSKDSSGYGYYLNYSLDVWGKGTTVTVSS
VL: EIVMTQSPATLSVSPGERATLSCRASQSVSNLAWYQQKPGQAPRLLIYGASTRATGIPARFSGSGSGTEFTLTISSLQSEDFAVYYCQQYNNWPHFGQGTRLQIK
notes: VH and VL only
The molecule B19 yielded a Kd with human CD3e/d of 37.2 nM. Against the preceding molecule, the Kd is about 86-fold lower.

The values are drawn from patent publication US20230295310A1 (ABCELLERA BIOLOGICS, published 2023).
